According to patent US20240190962A1 (IMMUNOWAKE, published 2024):
Residue numbers refer to the chain shown, from its start. Names and notes keep the numbering of the source.

Columns and labels:
CD4 on CD4+ T cells = target: T1, CD4 on CD4+ T cells (UniProt P01730 26-458, limits assumed); test: FACS
T1 construct: whole, on cells

[1] = target: human IL-12 receptor complex (IL-12Rβ1, IL-12Rβ2) (human, UniProt P42701 24-662; Q99665 24-862); test: cell-based or functional assay
human PD-1 [2] = target: T2, human PD-1 (human, UniProt Q15116 25-167, limits assumed); test: PD-L2-Fc format, calibrated on PD-L2(wt)-Fc
T2 construct: also called hPD-1

mouse PD-1 [3] = target: T3, mouse PD-1 (mouse, UniProt Q02242 25-167, limits assumed); test: PD-L2-Fc format, calibrated on PD-L2(wt)-Fc
T3 construct: also called mPD-1
T3 sequence (looked up): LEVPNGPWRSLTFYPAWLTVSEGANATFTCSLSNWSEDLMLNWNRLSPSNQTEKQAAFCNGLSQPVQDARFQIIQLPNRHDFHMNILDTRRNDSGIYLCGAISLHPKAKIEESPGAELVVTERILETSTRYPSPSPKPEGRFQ

human PD-1 [4] = target: T2, human PD-1; test: PD-L1-Fc format, calibrated on PD-L1(wt)-Fc
mouse PD-1 [5] = target: T3, mouse PD-1; test: PD-L1-Fc format, calibrated on PD-L1(wt)-Fc

T2 sequence (Q15116 25-167 limits assumed): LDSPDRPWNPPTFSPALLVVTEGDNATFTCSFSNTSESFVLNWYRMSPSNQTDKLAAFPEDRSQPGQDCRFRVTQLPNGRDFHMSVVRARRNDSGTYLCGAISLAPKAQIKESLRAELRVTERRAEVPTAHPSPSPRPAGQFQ
human IL-12 receptor complex (IL-12Rβ1, IL-12Rβ2), sequence (Q99665 24-862, chain 2 of 2, other chains not shown): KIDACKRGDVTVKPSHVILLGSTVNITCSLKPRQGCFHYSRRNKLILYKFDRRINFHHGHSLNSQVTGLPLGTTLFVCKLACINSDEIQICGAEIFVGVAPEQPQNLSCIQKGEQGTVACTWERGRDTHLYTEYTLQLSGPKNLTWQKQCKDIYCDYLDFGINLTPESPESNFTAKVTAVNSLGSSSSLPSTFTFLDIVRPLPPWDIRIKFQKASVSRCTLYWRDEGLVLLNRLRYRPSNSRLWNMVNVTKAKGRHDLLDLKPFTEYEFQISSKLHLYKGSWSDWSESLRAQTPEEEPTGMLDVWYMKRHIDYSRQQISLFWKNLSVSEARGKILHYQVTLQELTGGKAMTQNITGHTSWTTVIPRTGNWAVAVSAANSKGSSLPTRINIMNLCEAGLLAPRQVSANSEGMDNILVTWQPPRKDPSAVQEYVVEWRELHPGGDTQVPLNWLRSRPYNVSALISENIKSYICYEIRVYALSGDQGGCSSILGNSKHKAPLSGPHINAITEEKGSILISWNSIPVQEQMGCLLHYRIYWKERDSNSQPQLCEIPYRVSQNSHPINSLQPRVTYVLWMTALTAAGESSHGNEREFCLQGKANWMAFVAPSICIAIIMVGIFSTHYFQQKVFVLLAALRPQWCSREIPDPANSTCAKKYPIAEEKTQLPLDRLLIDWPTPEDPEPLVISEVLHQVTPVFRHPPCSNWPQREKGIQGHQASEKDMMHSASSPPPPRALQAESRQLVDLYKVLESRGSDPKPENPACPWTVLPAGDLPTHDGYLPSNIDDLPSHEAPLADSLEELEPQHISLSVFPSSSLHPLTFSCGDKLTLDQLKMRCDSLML

B1: Fab-IL-12(WT)-Fc-CD8 Ab (other)
light: DIQMTQTTSSLSASLGDRVTISCRASQDINNYLNWYQQKSDGTIKLLIYYTSRSYSGVPSRFSGSGSGTDYSLTISNRRQEDIATYFCQQGKTLPWTFGGGTKLEIKRTVAAPSVFIFPPSDEQLKSGTASVVCLLNNFYPREAKVQWKVDNALQSGNSQESVTEQDSKDSTYSLSSTLTLSKADYEKHKVYACEVTHQGLSSPVTKSFNRGEC
heavy 1: EVQLQQSGPELVKPGASVKMSCKASGYTFTDYYMKWVKQSHGKSLEWIGHINPNNDDTFYTQKFKGRATLTVDKSSSTAYMQLNSLTSEDSAVYYCVRDDYDGGWFAYWGQGTLVTVSSASTKGPSVFPLAPSSKSTSGGTAALGCLVKDYFPEPVTVSWNSGALTSGVHTFPAVLQSSGLYSLSSVVTVPSSSLGTQTYICNVNHKPSNTKVDKKVEPKSCDKTHTCPPCPAPEKKGGPSVFLFPPKPKDTLMISRTPEVTCVVVDVSHEDPEVKFNWYVDGVEVHNAKTKPREEQYNSTYRVVSVLTVLHQDWLNGKEYKCKVSNKALPAPIEKTISKAKGQPREPQVYVLPPSREEMTKNQVSLLCLVKGFYPSDIAVEWESNGQPENRYMTWPPVLDSDGSFFLYSKLTVDKSRWQQGNVFSCSVMHEALHNHYTQKSLSLSPGK
heavy 2: EVQLQQSGPELVKPGASVKMSCKASGYTFTDYYMKWVKQSHGKSLEWIGHINPNNDDTFYTQKFKGRATLTVDKSSSTAYMQLNSLTSEDSAVYYCVRDDYDGGWFAYWGQGTLVTVSSASTKGPSVFPLAPSSKSTSGGTAALGCLVKDYFPEPVTVSWNSGALTSGVHTFPAVLQSSGLYSLSSVVTVPSSSLGTQTYICNVNHKPSNTKVDKKVEPKSCDKPGSGIWELKKDVYVVELDWYPDAPGEMVVLTCDTPEEDGITWTLDQSSEVLGSGKTLTIQVKEFGDAGQYTCHKGGEVLSHSLLLLHKKEDGIWSTDILKDQKEPKNKTFLRCEAKNYSGRFTCWWLTTISTDLTFSVKSSRGSSDPQGVTCGAATLSAERVRGDNKEYEYSVECQEDSACPAAEESLPIEVMVDAVHKLKYENYTSSFFIRDIIKPDPPKNLQLKPLKNSRQVEVSWEYPDTWSTPHSYFSLTFCVQVQGKSKREKKDRVFTDKTSATVICRKNASISVRAQDRYYSSSWSEWASVPCSGGGGSGGGGSGGGGSGGGGSGRNLPVATPDPGMFPCLHHSQNLLRAVSNMLQKARQTLEFYPCTSEEIDHEDITKDKTSTVEACLPLELTKNESCLNSRETSFITNGSCLASRKTSFMMALCLSSIYEDLKMYQVEFKTMNAKLLMDPKRQIFLDQNMLAVIDELMQALNFNSETVPQKSSLEEPDFYKTKIKLCILLHAFRIRAVTIDRVMSYLNASDKTHTCPPCPAPEDEGGPSVFLFPPKPKDTLMISRTPEVTCVVVDVSHEDPEVKFNWYVDGVEVHNAKTKPREEQYNSTYRVVSVLTVLHQDWLNGKEYKCKVSNKALPAPIEKTISKAKGQPREPQVYVYPPSREEMTKNQVSLTCLVKGFYPSDIAVEWESNGQPENNYKTTPPVLDEDGSFALVSKLTVDKSRWQQGNVFSCSVMHEALHNHYTQKSLSLSPGK
notes: copies: 2 + 1 + 1
CD4 on CD4+ T cells
  binding result: no binding
[1]
  IL-12 biological activity (IFN-γ release), CD4+ T cells: 21%
  IL-12 biological activity (IFN-γ release), CD8+ T cells: 56%

B2: Fab-IL-12(E59A/F60A)-Fc-CD8 Ab (other)
light: B1 light
heavy 1: B1 heavy 1
heavy 2: B1 heavy 2 with E287A, F288A
CD4 on CD4+ T cells
  binding result: no binding
[1]
  IL-12 biological activity (IFN-γ release), CD4+ T cells: 0%
  IL-12 biological activity (IFN-γ release), CD8+ T cells: 11%

B3: Fab-IL-12(F60A)-Fc-CD8 Ab (other)
light: B1 light
heavy 1: B1 heavy 1
heavy 2: B1 heavy 2 with F288A
notes: copies: 2 + 1 + 1
CD4 on CD4+ T cells
  binding result: no binding
[1]
  IL-12 biological activity (IFN-γ release), CD4+ T cells: 1.2%
  IL-12 biological activity (IFN-γ release), CD8+ T cells: 21.9%

B4: Fab-IL-12(E59A)-Fc-CD8 Ab (other)
light: B1 light
heavy 1: B1 heavy 1
heavy 2: B1 heavy 2 with E287A
notes: copies: 2 + 1 + 1
CD4 on CD4+ T cells
  binding result: no binding
[1]
  IL-12 biological activity (IFN-γ release), CD4+ T cells: 2.1%
  IL-12 biological activity (IFN-γ release), CD8+ T cells: 24.2%

B5: PD-L2(mut2)-Fc (Fc fusion)
chain 1: LFTVTVPKELYIIEHGSNVTLECNFDTGSHVNLGAITAVLQKVENDTSPHRERATLLEEQLPLGKASFHIPQVQVRDEGQYQCIIIYGVAWDYKYLTLKVKASYRKINTHILKVPETDEVELTCQATGYPLAEVSWPNVSVPANTSHSRTPEGLYQVTSVLRLKPPPGRNFSCVFWNTHVRELTLASIDLQSQMEPRTHPTGGGGSGGGDKTHTCPPCPAPEDEGGPSVFLFPPKPKDTLMISRTPEVTCVVVDVSHEDPEVKFNWYVDGVEVHNAKTKPREEQYNSTYRVVSVLTVLHQDWLNGKEYKCKVSNKALPAPIEKTISKAKGQPREPQVYVYPPSREEMTKNQVSLTCLVKGFYPSDIAVEWESNGQPENNYKTTPPVLDEDGSFALVSKLTVDKSRWQQGNVFSCSVMHEALHNHYTQKSLSLSPGK
chain 2: B5 chain 1 with D223K, E224K, Y340L, T355L, N379R, K381M, T383W, E389S, A394F, V396Y
notes: also called PD-L2(S58V)
Human PD-1 [2]
  Kd: 350 nM
Mouse PD-1 [3]
  Kd: 230 nM

B6: PD-L2(mut4)-Fc (Fc fusion)
chain 1: B5 chain 1 with T37V, Q41L
chain 2: LFTVTVPKELYIIEHGSNVTLECNFDTGSHVNLGAIVAVLLKVENDTSPHRERATLLEEQLPLGKASFHIPQVQVRDEGQYQCIIIYGVAWDYKYLTLKVKASYRKINTHILKVPETDEVELTCQATGYPLAEVSWPNVSVPANTSHSRTPEGLYQVTSVLRLKPPPGRNFSCVFWNTHVRELTLASIDLQSQMEPRTHPTGGGGSGGGDKTHTCPPCPAPEKKGGPSVFLFPPKPKDTLMISRTPEVTCVVVDVSHEDPEVKFNWYVDGVEVHNAKTKPREEQYNSTYRVVSVLTVLHQDWLNGKEYKCKVSNKALPAPIEKTISKAKGQPREPQVYVLPPSREEMTKNQVSLLCLVKGFYPSDIAVEWESNGQPENRYMTWPPVLDSDGSFFLYSKLTVDKSRWQQGNVFSCSVMHEALHNHYTQKSLSLSPGK
notes: also called PD-L2(T56V/S58V/Q60L)
Human PD-1 [2]
  Kd: 255 nM
Mouse PD-1 [3]
  Kd: 220 nM

B7: PD-L1(mut7)-Fc (Fc fusion)
chain 1: FTVTVPKDLYVVEYGSNMTIECKFPVEKQLDLAALQVYWMMEDKNIIQFVHGEEDLKVQHSSYRQRARLLKDQLSLGNAALQITDVKLQDAGVYTCLIAYGGADYKRITVKVNAPYNKINQRILVVDPVTSEHELTCQAEGYPKAEVIWTSSDHQVLSGKTTTTNSKREEKLFNVTSTLRINTTTNEIFYCTFRRLDPEENHTAELVIPELPLAHPPNERGGGGSGGGDKTHTCPPCPAPEDEGGPSVFLFPPKPKDTLMISRTPEVTCVVVDVSHEDPEVKFNWYVDGVEVHNAKTKPREEQYNSTYRVVSVLTVLHQDWLNGKEYKCKVSNKALPAPIEKTISKAKGQPREPQVYVYPPSREEMTKNQVSLTCLVKGFYPSDIAVEWESNGQPENNYKTTPPVLDEDGSFALVSKLTVDKSRWQQGNVFSCSVMHEALHNHYTQKSLSLSPGK
chain 2: B7 chain 1 with D242K, E243K, Y359L, T374L, N398R, K400M, T402W, E408S, A413F, V415Y
notes: also called PD-L1(I54Q/E58M/R113T/M115L/S117A)
Human PD-1 [4]
  Kd: 98 nM
Mouse PD-1 [5]
  Kd: 110 nM
